Binding result and Kd data for 2 molecules are collected here from PMC6561087 (Nature, 2019).

Test [1] deals with T1, IFNγR1, wild type, recombinant soluble receptor captured on the SPR chip (UniProt P15260 18-245).
T1 sequence (looked up): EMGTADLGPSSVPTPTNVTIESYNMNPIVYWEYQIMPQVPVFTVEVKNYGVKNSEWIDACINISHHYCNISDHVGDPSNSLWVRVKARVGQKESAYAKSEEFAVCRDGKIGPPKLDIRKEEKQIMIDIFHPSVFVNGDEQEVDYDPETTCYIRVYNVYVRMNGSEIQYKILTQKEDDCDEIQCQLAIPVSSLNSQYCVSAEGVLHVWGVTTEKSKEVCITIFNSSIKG
The test can be described thus: SPR. For orientation: SPR reads the build-up and loss of mass on a sensor chip optically.

Test [2] addresses 2:2 IFNγ–IFNγR1 intermediate complex (wild type), formed on the SPR chip (UniProt P15260). The experiment in a line: SPR.

B1: IFNγ(K74A/E75Y/N83R) triple mutant (ligand)
chain: QDPYVKEAENLKKYFNAGHSDVADNGTLFLGILKNWKEESDRKIMQSQIVSFYFKLFKNFKDDQSIQKSVETIAYDMNVKFFRSNKKKRDDFEKLTNYSVTDLNVQRKAIHELIQVMAELSPAAKTGKRKRSQ
B1: the binding result in test [1] was “binds”.

B2: IFNγR2, wild type, recombinant soluble receptor (receptor)
chain: SQLPAPQHPKIRLYNAEQVLSWEPVALSNSTRPVVYQVQFKYTDSKWFTADIMSIGVNCTQITATECDFTAASPSAGFPMDFNVTLRLRAELGALHSAWVTMPWFQHYRNVTVGPPENIEVTPGEGSLIIRFSSPFDIADTSTAFFCYYVHYWEKGGIQQVKGPFRSNSISLDNLKPSRVYCLQVQAQLLWNKSNIFRVGHLSNISCYETMADASTELQQ
On to B2, for which the Kd in test [2] was 5 µM.

One may read the Kd as the concentration at which binding is half-saturated. Low readings indicate higher affinity, high ones lower affinity.
